Tests used:
His-NinH R56A = target: T1, His-NinH R56A (Bacteriophage lambda (cI857 Sam7), UniProt P03771 1-68, A15T;R56A); test: AUC; sedimentation velocity, ~0.6 mg/ml protein, 4°C, 50 000 rpm, scans at 260 and 280 nm, SEDFIT
T1 sequence: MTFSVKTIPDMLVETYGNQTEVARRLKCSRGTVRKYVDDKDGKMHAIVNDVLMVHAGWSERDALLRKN

[1] = target: His-NinH R30A (bacteriophage λ) (UniProt P03771); test: as above
[2] = target: His-NinH S29A R30A (bacteriophage λ) (UniProt P03771); test: as above
His-NinH S29A = target: T2, His-NinH S29A (Bacteriophage lambda (cI857 Sam7), UniProt P03771 1-68, A15T;S29A); test: as above
T2 sequence: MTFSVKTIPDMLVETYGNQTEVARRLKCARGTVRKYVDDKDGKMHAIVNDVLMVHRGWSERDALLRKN

His-NinH T32A = target: T3, His-NinH T32A (Bacteriophage lambda (cI857 Sam7), UniProt P03771 1-68, A15T;T32A); test: as above
T3 sequence: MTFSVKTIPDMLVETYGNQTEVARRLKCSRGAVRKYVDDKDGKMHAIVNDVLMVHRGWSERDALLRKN

His-NinH K35A = target: T4, His-NinH K35A (Bacteriophage lambda (cI857 Sam7), UniProt P03771 1-68, A15T;K35A); test: as above
T4 sequence: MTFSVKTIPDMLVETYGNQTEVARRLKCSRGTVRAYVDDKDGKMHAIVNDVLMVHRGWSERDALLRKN

His-NinH N18A = target: T5, His-NinH N18A (Bacteriophage lambda (cI857 Sam7), UniProt P03771 1-68, A15T;N18A); test: as above
T5 sequence: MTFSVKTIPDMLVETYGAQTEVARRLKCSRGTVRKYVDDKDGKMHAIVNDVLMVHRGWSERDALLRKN

NinH (native, untagged) [3] = target: T6, NinH (native, untagged) (Bacteriophage lambda (cI857 Sam7), UniProt P03771 1-68, A15T); test: fluorescence anisotropy; Hill 2.23; dimer concentration; MST: PBS pH 7.4 + 0.05% Tween-20, 22 C; anisotropy: 6.7 mM Tris-HCl pH 8.0, 3.3 nM (so in the source) sodium acetate, 2 mM EDTA, 25 C; EMSA (32P): 50 mM Tris-HCl pH 8.0, 5 mM EDTA, 1 mM DTT, 5% glycerol, 100 ug/ml BSA, on ice; EMSA (Cy520): PBS pH 7.4, room temp; details: protein: recombinant; tags: none; chain copies: 2; label: 3'-fluorescein (C6 linker) on strand 1; blunt
T6 sequence: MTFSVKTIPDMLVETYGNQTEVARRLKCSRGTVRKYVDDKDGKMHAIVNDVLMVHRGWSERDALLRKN

His-NinH wt [4] = target: T7, His-NinH wt (Bacteriophage lambda (cI857 Sam7), UniProt P03771 1-68, A15T); test: fluorescence anisotropy; Hill 1.985; dimer concentration; MST: PBS pH 7.4 + 0.05% Tween-20, 22 C; anisotropy: 6.7 mM Tris-HCl pH 8.0, 3.3 nM (so in the source) sodium acetate, 2 mM EDTA, 25 C; EMSA (32P): 50 mM Tris-HCl pH 8.0, 5 mM EDTA, 1 mM DTT, 5% glycerol, 100 ug/ml BSA, on ice; EMSA (Cy520): PBS pH 7.4, room temp; details: protein: recombinant; tags: N-His6; chain copies: 2; label: 3'-fluorescein (C6 linker) on strand 1; blunt
T7 sequence: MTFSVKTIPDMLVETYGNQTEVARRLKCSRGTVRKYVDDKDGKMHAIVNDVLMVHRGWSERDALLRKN

NinH (native, untagged) [5] = target: T6, NinH (native, untagged); test: EMSA; two complexes; MST: PBS pH 7.4 + 0.05% Tween-20, 22 C; anisotropy: 6.7 mM Tris-HCl pH 8.0, 3.3 nM (so in the source) sodium acetate, 2 mM EDTA, 25 C; EMSA (32P): 50 mM Tris-HCl pH 8.0, 5 mM EDTA, 1 mM DTT, 5% glycerol, 100 ug/ml BSA, on ice; EMSA (Cy520): PBS pH 7.4, room temp; details: protein: recombinant; tags: none; chain copies: 2; label: 5'-32P on strand 1; blunt
NinH (native, untagged) [6] = target: T6, NinH (native, untagged); test: EMSA; similar to DS60; MST: PBS pH 7.4 + 0.05% Tween-20, 22 C; anisotropy: 6.7 mM Tris-HCl pH 8.0, 3.3 nM (so in the source) sodium acetate, 2 mM EDTA, 25 C; EMSA (32P): 50 mM Tris-HCl pH 8.0, 5 mM EDTA, 1 mM DTT, 5% glycerol, 100 ug/ml BSA, on ice; EMSA (Cy520): PBS pH 7.4, room temp; details: protein: recombinant, tags: none, chain copies: 2, label: 5'-32P on strand 1
NinH (native, untagged) [7] = target: T6, NinH (native, untagged); test: EMSA; affinity similar to DS60, more second complex; MST: PBS pH 7.4 + 0.05% Tween-20, 22 C; anisotropy: 6.7 mM Tris-HCl pH 8.0, 3.3 nM (so in the source) sodium acetate, 2 mM EDTA, 25 C; EMSA (32P): 50 mM Tris-HCl pH 8.0, 5 mM EDTA, 1 mM DTT, 5% glycerol, 100 ug/ml BSA, on ice; EMSA (Cy520): PBS pH 7.4, room temp; details: protein: recombinant, tags: none, chain copies: 2, label: 5'-32P on strand 1
His-NinH wt [8] = target: T7, His-NinH wt; test: EMSA; two complexes; MST: PBS pH 7.4 + 0.05% Tween-20, 22 C; anisotropy: 6.7 mM Tris-HCl pH 8.0, 3.3 nM (so in the source) sodium acetate, 2 mM EDTA, 25 C; EMSA (32P): 50 mM Tris-HCl pH 8.0, 5 mM EDTA, 1 mM DTT, 5% glycerol, 100 ug/ml BSA, on ice; EMSA (Cy520): PBS pH 7.4, room temp; details: protein: recombinant; tags: N-His6; chain copies: 2; label: 5'-32P on strand 1; blunt
His-NinH wt [9] = target: T7, His-NinH wt; test: EMSA; single complex; MST: PBS pH 7.4 + 0.05% Tween-20, 22 C; anisotropy: 6.7 mM Tris-HCl pH 8.0, 3.3 nM (so in the source) sodium acetate, 2 mM EDTA, 25 C; EMSA (32P): 50 mM Tris-HCl pH 8.0, 5 mM EDTA, 1 mM DTT, 5% glycerol, 100 ug/ml BSA, on ice; EMSA (Cy520): PBS pH 7.4, room temp; details: protein: recombinant; tags: N-His6; chain copies: 2; label: 5'-32P on strand 1; fork 1:2, 31 bp duplex
[10] = target: the molecule itself; test: SAXS; His-NinH in solution at 4 mg/ml, Xeuss 2.0 laboratory SAXS system

Molecule: His-NinH R56A (from UniProt P03771 1-68) (natural protein)
- stoichiometry N (His-NinH R56A): 2

Molecule: His-NinH R30A (from UniProt P03771 1-68) (natural protein)
- stoichiometry N [1]: 2

Molecule: His-NinH S29A R30A (from UniProt P03771 1-68) (natural protein)
- stoichiometry N [2]: 2

Molecule: His-NinH S29A (from UniProt P03771 1-68) (natural protein)
- stoichiometry N (His-NinH S29A): 2

Molecule: His-NinH T32A (from UniProt P03771 1-68) (natural protein)
- stoichiometry N (His-NinH T32A): 2

Molecule: His-NinH K35A (from UniProt P03771 1-68) (natural protein)
- stoichiometry N (His-NinH K35A): 2

Molecule: His-NinH N18A (from UniProt P03771 1-68) (natural protein)
- stoichiometry N (His-NinH N18A): 2

B1: DS20 (o-FLU20/o-SS20) (dsDNA)
DNA 1: TGGGTCAACGTGGGCAAAGA
DNA 2: TCTTTGCCCACGTTGACCCA
- Kd (NinH (native, untagged) [3]): ~57 nM
- Kd (His-NinH wt [4]): 43 nM

B2: DS60 (dsDNA)
DNA 1: TTTGGTCTAACTTTACCGCTACTAAATGCCGCGGATTGGTTTCGCTGAATCAGGTTATTA
DNA 2: TAATAACCTGATTCAGCGAAACCAATCCGCGGCATTTAGTAGCGGTAAAGTTAGACCAAA
- binding result (NinH (native, untagged) [5]): binds

B3: BB5 (dsDNA)
DNA 1: TTTGGTCTAACTTTACCGCTACTAAATGCCGCGGATTGGTTTCGCTGAATCAGGTTATTA
DNA 2: TAATAACCTGATTCAGCGAAACCAATCGCAACCATTTAGTAGCGGTAAAGTTAGACCAAA
- binding result (NinH (native, untagged) [6]; central 5 nt bubble): binds

B4: BT1 (dsDNA)
DNA 1: TTTGGTCTAACTTTACCGCTACTAAATGCCGCGGATTGGTTTCGCTGAATCAGGTTATTA
DNA 2: TAATAACCTGATTCAGCGAAACCAATCCAGCGGCATTTAGTAGCGGTAAAGTTAGACCAAA
- binding result (NinH (native, untagged) [7]; 1 extra A bulge in strand 2): binds

B5: BB20 (dsDNA)
DNA 1: TTTGGTCTAACTTTACCGCTACTAAATGCCGCGGATTGGTTTCGCTGAATCAGGTTATTA
DNA 2: TAATAACCTGATTCAGCGAATGACCGATAACGTCCACTTGAGCGGTAAAGTTAGACCAAA
- binding result (NinH (native, untagged) [6]; central 20 nt bubble): binds

B6: BT3 (dsDNA)
DNA 1: TTTGGTCTAACTTTACCGCTACTAAATGCCGCGGATTGGTTTCGCTGAATCAGGTTATTA
DNA 2: TAATAACCTGATTCAGCGAAACCAATCCAAAGCGGCATTTAGTAGCGGTAAAGTTAGACCAAA
- binding result (NinH (native, untagged) [7]; 3 extra A bulge in strand 2): binds

B7: BT2 (dsDNA)
DNA 1: TTTGGTCTAACTTTACCGCTACTAAATGCCGCGGATTGGTTTCGCTGAATCAGGTTATTA
DNA 2: TAATAACCTGATTCAGCGAAACCAATCCAAGCGGCATTTAGTAGCGGTAAAGTTAGACCAAA
- binding result (NinH (native, untagged) [7]; 2 extra A bulge in strand 2): binds

B8: BB1 (dsDNA)
DNA 1: TTTGGTCTAACTTTACCGCTACTAAATGCCGCGGATTGGTTTCGCTGAATCAGGTTATTA
DNA 2: TAATAACCTGATTCAGCGAAACCAATCGGCGGCATTTAGTAGCGGTAAAGTTAGACCAAA
- binding result (NinH (native, untagged) [6]; central 1 nt mismatch): binds

B9: BB13 (dsDNA)
DNA 1: TTTGGTCTAACTTTACCGCTACTAAATGCCGCGGATTGGTTTCGCTGAATCAGGTTATTA
DNA 2: TAATAACCTGATTCAGCGAAACATTGTAGGTAAGCTTAGTAGCGGTAAAGTTAGACCAAA
- binding result (NinH (native, untagged) [6]; central 13 nt bubble): binds

B10: DS50 (dsDNA)
DNA 1: GGCGACGTGATCACCAGATGATTGCTAGGCATGCTTTCCGCAAGAGAAGC
DNA 2: GCTTCTCTTGCGGAAAGCATGCCTAGCAATCATCTGGTGATCACGTCGCC
- binding result (His-NinH wt [8]): binds

B11: Forked duplex FD (structured_DNA)
DNA 1: GGCGACGTGATCACCAGATGATTGCTAGGCATGCTTTCCGCAAGAGAAGC
DNA 2: GGCTTCTCTTGCGGAAAGCATGCCTAGCAATCCTGTCAGCTGCATGGAAC
- binding result (His-NinH wt [9]): binds

B12: N-His6-NinH (bacteriophage λ NinH, wild type) (natural protein)
chain: MTFSVKTIPDMLVEAYGNQTEVARRLKCSRGTVRKYVDDKDGKMHAIVNDVLMVHRGWSERDALLRKN
- stoichiometry N [10]: 2
